Literature values in publication PMC8880779 (International Journal of Molecular Sciences, 2022).

Assays:
[1] = system: cell-based AD model; design: method as in PMID 23519124
[2] = system: mouse model of AD; design: method as in PMID 29164613

B1: CaM-like skin protein: present at concentrations ranging between 3 and 6 nM in the human cerebrospinal fluid (protein, UniProt Q9NZT1 2-146, looked up)
Calmodulin-like protein 5: AGELTPEEEAQYKKAFSAVDTDGNGTINAQELGAALKATGKNLSEAQLRKLISEVDSDGDGEISFQEFLTAAKKARAGLEDLQVAFRAFDQDGDGHITVDELRRAMAGLGQPLPQEELDAMIREADVDQDGRVNYEEFARMLAQE
- inhibition of neuronal death [1]: inhibits neuronal death in a cell-based AD model
- protection against spatial learning impairment [2]: affords efficient protection against spatial learning impairment
